According to publication PMC6179936 (Journal of immunology (Baltimore, Md. : 1950), 2018):
Where no end group is shown, it is not given here. The star is where a group is joined. X1 = 2,3‑bis(palmitoyloxy)‑(2RS)‑propyl, CCCCCCCCCCCCCCCC(=O)OCC(C*)OC(=O)CCCCCCCCCCCCCCC; Palmitoyl = CCCCCCCCCCCCCCCC(=O)*

Target: T1, Recombinant human SAA1 made in human embryonic kidney (HEK) cells (human, UniProt P0DJI8 19-122)
T1 sequence (looked up): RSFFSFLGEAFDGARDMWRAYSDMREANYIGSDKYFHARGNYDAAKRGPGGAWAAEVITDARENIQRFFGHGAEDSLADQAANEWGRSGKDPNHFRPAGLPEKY
Assay: retention on a 3 kDa cutoff centrifugal filter, read by TNFα from J774 cells

B1: Pam3CSK4, synthetic triacylated lipopeptide (peptide)
peptide: Palmitoyl-C(X1)SKKKK
Question: Does B1 bind?
Answer: Result: binds
